The target in experiment [1] is Pro-MMP-9 (recombinant) (Mus musculus (Mouse)) (UniProt P41245). In words: cell-based or functional assay.
The target is the same in experiment [2]. In words: CLU-His pull-down with anti-His tag antibody beads, gelatin zymography, densitometry; reference: MMP-9 and MMP-9-ΔC.

The record followed here is US10398755.

Some results are limits rather than exact numbers.

mouse CLU with C-terminal (His)6 (CLU-His), recombinant secreted clusterin, sequence (Q06890 other isoform, or with tags, fused parts or gaps): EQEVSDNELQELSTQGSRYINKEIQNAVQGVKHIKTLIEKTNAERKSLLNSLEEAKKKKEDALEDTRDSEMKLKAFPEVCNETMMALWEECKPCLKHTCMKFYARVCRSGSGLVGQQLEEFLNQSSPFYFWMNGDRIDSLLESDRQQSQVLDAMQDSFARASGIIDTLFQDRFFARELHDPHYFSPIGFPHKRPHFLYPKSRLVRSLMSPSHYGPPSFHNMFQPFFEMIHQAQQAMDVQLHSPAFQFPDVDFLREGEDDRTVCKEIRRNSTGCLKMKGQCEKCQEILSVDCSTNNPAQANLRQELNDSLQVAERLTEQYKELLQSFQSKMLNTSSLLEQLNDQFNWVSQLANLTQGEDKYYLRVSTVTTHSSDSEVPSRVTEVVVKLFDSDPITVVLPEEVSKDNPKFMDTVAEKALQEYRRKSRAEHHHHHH

For “mouse CLU with C-terminal (His)6 (CLU-His), recombinant secreted clusterin (from UniProt Q06890 22-448)”, in experiment [1], the inhibition of MMP-9 activity; FRET peptide substrate, average of three independent experiments, CLU 50 µg/ml worked out at 35% and the inhibition of MMP-9 activity; FRET peptide substrate, pro-MMP-9 with APMA, 3 h, CLU 50 µg/ml (0.63 µM) came out at 28%. In addition, in experiment [2], the fold stronger affinity for CLU than the other forms of MMP-9 (band densities, Image J) is more than 10 times.
